Values joined by “and” are separate entries in the source; they are usually repeats but may differ in a detail not shown here. Equal values may be shown once. “Also recorded” adds a separate entry of the source. Ends that are not written are not given here.
What was measured:
[1] = Peptide stability in cell culture medium / conditioned medium (ELISA of functional peptide); format: in vitro ADME; settings: up to 48 hours; 25 nM peptide; medium diluted 1:10; functional peptide by ELISA; 6–9 measurements; Figure 3A
Method: PC3 prostate cancer cells were grown in RPMI 1640 medium (Mediatech, Inc, Herndon, VA) with 10% fetal bovine serum (FBS) (Hyclone, Logan, UT), penicillin and streptomycin. B16-F10-luc-G5 melanoma cells (Caliper Life Sciences, Hopkinton, MA) were grown in Eagle's MEM with Earle's Balanced Salts (EBSS) (Hyclone, Logan, UT) supplemented with 10% FBS, non essential amino acids (Hyclone, Logan, UT), L-glutamine, sodium pyruvate (Hyclone, Logan, UT), MEM vitamin solution (Life Technologies-Invitrogen), penicillin and streptomycin (Omega Scientific, Tarzana, CA). HUVECs (Cascade Biologics, Portland, OG) were grown in Medium 200 supplemented with low serum growth supplements (Cascade Biologics), 10% FBS, penicillin and streptomycin, and fungizone (Omega Scientific, Tarzana, CA). Rat EMCs were grown in DMEM (Mediatech, Inc, Herndon, VA) supplemented with 10% FBS, penicillin and streptomycin. The different modified forms of TNYL-RAW at a concentration of 25 nM were added to fresh medium or culture medium conditioned by the cells for 1–4 days. The culture medium was collected after different time periods and diluted 1∶10 in ELISA wells. The amount of intact TNYL-RAW peptide remaining was measured by using the ELISA assays described above for measurement of binding affinity. In some experiments, the peptide was incubated at 37°C with PC3 cell conditioned medium collected from the cells in the absence or in the presence of protease inhibitors (10 µg/ml aprotinin, 5 µg/ml pepstatin, 10 µg/ml leupeptin and 0.75 mM or phenylmethylsulfonylfluoride (PMSF)).

[2] = Peptide stability in mouse serum ex vivo; format: in vitro ADME; settings: undiluted mouse serum, 37°C, functional peptide by ELISA; Figures 1E, 3B
[3] = Peptide retention in mouse blood circulation; format: in vivo; settings: C57BL/6 mice, intravenous, serum ELISA, 3 mice, Figure 3C; for Circulation half-life (t1/2): 2.1 nmoles TNYL-RAW-Fc, 1.5 nmoles TNYL-RAW-streptavidin, 6 nmoles PEG-TNYL-RAW, non linear regression; for AUC: % of the injected dose•hours/ml
Method: 2.1 nmoles TNYL-RAW-Fc, 1.5 nmoles TNYL-RAW-streptavidin and 6 nmoles PEG-TNYL-RAW, diluted in 150 µl sterile PBS, were administered to C57BL/6 mice by intravenous or intraperitoneal injection. Blood was collected from each mouse from the orbital sinus at two time points after injection and by cardiac puncture under Avertin anesthesia at a third time point. These experiments were carried out in accordance with the recommendations in the Guide for the Care and Use of Laboratory Animals of the National Institutes of Health. The protocol was approved by the Institutional Animal Care and Use Committee of the Sanford-Burnham Medical Research Institute (Animal Assurance Number: A-3053-1). After collection, the blood was […], and the serum was stored at −20°C. The different forms of TNYL-RAW in the serum were detected by using the same ELISA assays described above for measurements of binding affinity. The absorbance from wells incubated with mouse serum without TNYL-RAW was subtracted as the background and the concentration of TNYL-RAW in the blood was calculated based on a standard curve generated using serum containing known TNYL-RAW concentrations. The half-life of each peptide was estimated by using non linear regression and the program Prism (GraphPad Software Inc.). The area under the curve (AUC) was expressed as % ID•hours/ml (where ID is the initial dose of peptide injected) and calculated by dividing the AUC value obtained using the program Prism by the amount of injected peptide and multiplying by 100.

[4] = molecular target: T1, EphB4 (Homo sapiens, UniProt P54760); test: EphB4 activation by multimeric peptide forms (unpublished data); format: cell-based
T1 sequence (P54760 16-987): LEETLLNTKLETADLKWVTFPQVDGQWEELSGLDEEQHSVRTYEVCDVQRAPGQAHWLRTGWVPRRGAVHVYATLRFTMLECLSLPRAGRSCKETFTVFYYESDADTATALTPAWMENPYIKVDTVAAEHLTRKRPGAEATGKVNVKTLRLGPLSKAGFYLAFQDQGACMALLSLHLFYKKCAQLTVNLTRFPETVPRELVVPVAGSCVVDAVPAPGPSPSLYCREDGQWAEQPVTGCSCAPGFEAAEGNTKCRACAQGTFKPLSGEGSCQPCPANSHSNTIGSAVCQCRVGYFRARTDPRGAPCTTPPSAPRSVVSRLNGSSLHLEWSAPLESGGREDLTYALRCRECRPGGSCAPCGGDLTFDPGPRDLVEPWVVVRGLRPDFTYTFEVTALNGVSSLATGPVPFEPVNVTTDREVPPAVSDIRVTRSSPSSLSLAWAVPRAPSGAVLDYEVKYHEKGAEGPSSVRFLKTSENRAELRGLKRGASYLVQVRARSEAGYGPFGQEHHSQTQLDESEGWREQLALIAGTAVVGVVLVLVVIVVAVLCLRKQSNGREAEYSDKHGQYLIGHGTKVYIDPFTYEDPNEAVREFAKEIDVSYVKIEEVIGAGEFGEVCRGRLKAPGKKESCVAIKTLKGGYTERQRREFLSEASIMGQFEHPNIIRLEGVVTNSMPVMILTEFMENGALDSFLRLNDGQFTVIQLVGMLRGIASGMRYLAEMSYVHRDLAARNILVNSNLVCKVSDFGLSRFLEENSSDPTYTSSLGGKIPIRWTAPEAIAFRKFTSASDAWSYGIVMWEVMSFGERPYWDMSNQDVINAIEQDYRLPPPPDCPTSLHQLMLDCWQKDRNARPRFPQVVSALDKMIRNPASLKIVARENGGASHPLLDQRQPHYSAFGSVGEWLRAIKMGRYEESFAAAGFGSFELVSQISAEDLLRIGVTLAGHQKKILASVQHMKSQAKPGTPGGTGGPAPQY

| Substance | Degradation in PC3 cell conditioned medium [1] | Stability in mouse serum ex vivo [2] | Circulation half-life (t1/2) [3] | AUC [3] | Activation of EphB4 [4] |
| --- | --- | --- | --- | --- | --- |
| TNYL-RAW-streptavidin: biotinylated TNYL-RAW in complex with streptavidin at molar ratio 4:1 | absence of peptide degradation | much decreased degradation | ~1 h and 1.3 h | 110 % ID-h/ml | unable to detectably activate EphB4 |
| TNYL-RAW-Fc: TNYL-RAW fused through a GSGSK linker to the Fc portion of human IgG1, from HEK 293 cells (TNYLFSPNGPIARAWGSGSK-{Fc (human IgG1)}; also: dimer) | absence of peptide degradation | much decreased degradation; also recorded: not as stable in mouse serum as the streptavidin-bound or PEGylated peptide | ~1 h and 0.8 h | 140 % ID-h/ml | unable to detectably activate EphB4 |

From paper PMC3237458, “PEGylation Potentiates the Effectiveness of an Antagonistic Peptide That Targets the EphB4 Receptor with Nanomolar Affinity” (PLoS ONE, 2011)
